In patent publication US20230383001A1 (Kyowa Kirin, published 2023):

Biological target: T1, OX40 on OX40-positive helper T-cells in blood of patients (human, UniProt P43489 29-277)
T1 construct: whole, on cells; The cells came from trial patients; also called CD134; human OX40
T1 sequence (looked up): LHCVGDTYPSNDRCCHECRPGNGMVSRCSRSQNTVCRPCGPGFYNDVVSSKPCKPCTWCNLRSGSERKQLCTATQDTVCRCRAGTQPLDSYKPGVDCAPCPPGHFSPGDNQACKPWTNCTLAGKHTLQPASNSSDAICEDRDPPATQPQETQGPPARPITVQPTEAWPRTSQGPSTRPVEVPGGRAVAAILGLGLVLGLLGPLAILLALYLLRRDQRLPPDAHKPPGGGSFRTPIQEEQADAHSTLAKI
Experiment: flow cytometry of patients' blood after dosing: total versus unoccupied OX40-positive helper T cells (receptor occupancy, ex vivo)
Description: Blood samples for flow cytometry are collected from the subjects who voluntarily agree. When the timing overlaps the study drug administration, the sample is taken before the study drug administration. The OX40-positive cells and the CLA-positive memory T cells in the blood of the patients are counted. When OX40-positive cells in the blood are analyzed, OX40-positive cells in helper T cells are analyzed by using helper T cell markers. Therefore, OX40-positive cells in the blood herein means OX40 positive helper T cells in the blood.

- binding result: binds
B1: KHK4083 (antibody, human IgG1, kappa, V domains shown)
VH: QITLKESGPTLVKPKQTLTLTCTFSGFSLSTSGMGVGWIRQPPGKALEWLAVIYWDDHQLYSPSLKSRLTITKDTSKNQVVLTMTNMDPVDTATYYCAHRRGAFQHWGQGTLVTVSS
VL: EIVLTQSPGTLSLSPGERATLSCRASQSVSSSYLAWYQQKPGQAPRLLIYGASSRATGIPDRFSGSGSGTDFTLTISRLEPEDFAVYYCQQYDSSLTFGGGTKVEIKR
notes: also called anti-OX40 antibody
